From publication doi:10.1101/667956 (bioRxiv, 2019)
Positions count from the first letter of the chain named. “And” between values parts separate entries of the source, which are not always exact repeats. Equal values may be shown once.

Tests used:
cross-linking = molecular target: the molecule itself; test: cross-linking
[1] = molecular target: the molecule itself; test: single-molecule TIRF photobleaching
DLS = molecular target: the molecule itself; test: DLS
SAXS = molecular target: the molecule itself; test: SAXS
SEC-MALS [2] = molecular target: the molecule itself; test: SEC-MALS
SEC-MALS [3] = molecular target: the molecule itself; test: SEC-MALS; remark: listed apart in the source

B1: mTurquoise2-fused full-length Arc (1-396), wild type (natural protein)
chain: MELDHMTTGGLHAYPAPRGGPAAKPNVILQIGKCRAEMLEHVRRTHRHLLTEVSKQVERELKGLHRSVGKLENNLDGYVPTGDSQRWKKSIKACLCRCQETIANLERWVKREMHVWREVFYRLERWADRLESMGGKYPVGSEPARHTVSVGVGGPEPYCQEADGYDYTVSPYAITPPPAAGELPEQESVGAQQYQSWVPGEDGQPSPGVDTQIFEDPREFLSHLEEYLRQVGGSEEYWLSQIQNHMNGPAKKWWEFKQGSVKNWVEFKKEFLQYSEGTLSREAIQRELDLPQKQGEPLDQFLWRKRDLYQTLYVDAEEEEIIQYVVGTLQPKFKRFLRHPLPKTLEQLIQRGMEVQDGLEQAAEPSVTPLPTEDETEALTPALTSESVASDRTQPE
stoichiometry N (cross-linking): 2 and 3

B2: recombinantly purified rat Arc^s113-119A with an N-terminal SNAP tag and a C-terminal AviTag (natural protein)
chain: B1 chain with M113A, H114A, V115A, W116A, R117A, E118A, V119A
modifications: AlexaFluor488 SNAP substrate on the SNAP tag; C-terminally biotinylated (AviTag)
binding result [1]: binds

B3: mTq2-fused full-length Arc^s92-98A (natural protein)
chain: B1 chain with K92A, C94A, L95A, C96A, R97A, C98A
stoichiometry N (cross-linking): 2

B4: mTq2-fused full-length Arc^s113-119A (natural protein)
chain: B1 chain with M113A, H114A, V115A, W116A, R117A, E118A, V119A
stoichiometry N (cross-linking): 2

B5: purified wild-type human Arc (untagged) (natural protein)
chain: MELDHRTSGGLHAYPGPRGGQVAKPNVILQIGKCRAEMLEHVRRTHRHLLAEVSKQVERELKGLHRSVGKLESNLDGYVPTSDSQRWKKSIKACLCRCQETIANLERWVKREMHVWREVFYRLERWADRLESTGGKYPVGSESARHTVSVGVGGPESYCHEADGYDYTVSPYAITPPPAAGELPGQEPAEAQQYQPWVPGEDGQPSPGVDTQIFEDPREFLSHLEEYLRQVGGSEEYWLSQIQNHMNGPAKKWWEFKQGSVKNWVEFKKEFLQYSEGTLSREAIQRELDLPQKQGEPLDQFLWRKRDLYQTLYVDADEEEIIQYVVGTLQPKLKRFLRHPLPKTLEQLIQRGMEVQDDLEQAAEPAGPHLPVEDEAETLTPAPNSESVASDRTQPE
stoichiometry N (DLS): 40 to 55 Arc molecules per capsid

B6: Arc^s113-119A with an N-terminal MBP fusion tag (natural protein)
chain: B5 chain with M113A, H114A, V115A, W116A, R117A, E118A, V119A
stoichiometry N (SAXS): 2

B7: purified Arc^s113-119A (untagged) (natural protein)
chain: B5 chain with M113A, H114A, V115A, W116A, R117A, E118A, V119A
stoichiometry N (SEC-MALS [2]): 2

QETIANLERWVKREMHVWREVFYRLERWADRLES [synthetic peptide of the Arc oligomerization region (residues 99-132)]
stoichiometry N (SEC-MALS [3]): 6
